{
  "source": "patent US20170233490A1",
  "about": "(Hoffmann-La Roche, published 2017)",
  "key": {"[1]": {"target": "T1, SBP-tagged HER3-ECD (human, UniProt P21860 20-643)", "T1 construct": "from cell culture supernatant, held on a streptavidin plate; not shown: SBP tag", "experiment": "plate assay: SBP-tagged HER3-ECD on streptavidin plate, M-05-74 titrated in the presence of 10 nM Europium-labeled Heregulin-beta, time-resolved fluorescence; half-maximal promotion of HRG binding", "experimental": "On the next day the wells were washed three times with washing buffer (PBS+0.05% Tween-20) and blocked with PBS containing 1% BSA for one hour. After another three washes with washing buffer, 40 μl antibody solution (in Delfia Binding Buffer) was added to each well as a 2× stock of the desired final concentrations (10⁻³ to 10³ nM, alternatively 10⁻⁴ to 10² nM). […] The plates were incubated on a shaker at room temperature for two hours. Following three washes with Delfia Wash Buffer, Delfia Enhancement Solution was added and incubated on a shaker for 15 minutes (light protected). Finally, the plates were measured in a Tecan Infinite F200 reader using a time-resolved fluorescence measurement protocol."}, "[2]": {"target": "T2, human Heregulin fragment (HRG) (human)", "T2 construct": "44 kDa homodimeric protein, expressed in FreeStyle 293-F cells; also called Heregulin beta; HRG1β", "T2 chain": "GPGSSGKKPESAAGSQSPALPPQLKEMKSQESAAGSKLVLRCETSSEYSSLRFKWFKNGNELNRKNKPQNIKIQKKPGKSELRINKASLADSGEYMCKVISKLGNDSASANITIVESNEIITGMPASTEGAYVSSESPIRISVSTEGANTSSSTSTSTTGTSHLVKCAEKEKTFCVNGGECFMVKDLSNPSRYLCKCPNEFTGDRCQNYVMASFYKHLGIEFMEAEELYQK", "experiment": "SPR Biacore T100, antibody captured, 25 C", "experimental": "(§1) A CM5 series sensor was mounted into the system and was normalized in HBS-ET buffer (10 mM HEPES pH 7.4, 150 mM NaCl, 3 mM EDTA, 0.005% w/v Tween 20) according to the manufacturer's instructions. The sample buffer was the system buffer supplemented with 1 mg/ml CMD (Carboxymethyldextran, Sigma #86524). The system operated at 25° C. 6500 RU RAM-Fcγ (relative units of Fcγ-fragment RamIgG, GE Healthcare) were immobilized according to the manufacturer's instructions using EDC/NHS chemistry on all four flow cells. The sensor was deactivated using 1M ethanolamine.\n(§2) The binding activity of the respective antibody against the analytes was kinetically tested. Antibodies were captured at 35 nM concentration by a 1 min injection at 5 μl/min. The flow rate was set to 100 μl/min.\n(§3) Analytes in solution were injected at different concentration steps of 0 nM, 1.1 nM, 3.7 nM, 11.1 nM, 33.1 nM and 90 nM for 3.5 min. The dissociation was monitored for 15 min. Where possible, kinetic signatures were evaluated according to a Langmuir fit."}, "[3]": {"target": "T3, human HER4 Extracellular Domain (ECD) (human, UniProt Q15303 26-651)", "T3 construct": "also called Her4 ECD; HER4-ECD", "T3 sequence": "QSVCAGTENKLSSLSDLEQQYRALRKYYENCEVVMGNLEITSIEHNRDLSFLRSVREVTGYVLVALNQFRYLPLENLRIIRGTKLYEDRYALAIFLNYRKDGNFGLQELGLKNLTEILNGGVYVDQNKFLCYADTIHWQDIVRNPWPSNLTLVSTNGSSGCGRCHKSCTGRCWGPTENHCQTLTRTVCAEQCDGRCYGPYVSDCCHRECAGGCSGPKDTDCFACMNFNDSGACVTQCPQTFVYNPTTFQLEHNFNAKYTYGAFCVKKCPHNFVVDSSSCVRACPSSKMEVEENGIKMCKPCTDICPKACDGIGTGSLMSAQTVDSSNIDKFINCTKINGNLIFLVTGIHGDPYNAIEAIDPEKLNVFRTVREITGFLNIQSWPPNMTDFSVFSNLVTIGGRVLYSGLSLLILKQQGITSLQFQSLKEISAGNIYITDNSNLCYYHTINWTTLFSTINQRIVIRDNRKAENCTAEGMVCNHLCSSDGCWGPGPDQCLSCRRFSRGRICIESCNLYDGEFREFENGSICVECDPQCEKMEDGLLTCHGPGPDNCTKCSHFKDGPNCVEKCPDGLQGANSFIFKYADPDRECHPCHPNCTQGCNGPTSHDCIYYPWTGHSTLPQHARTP", "experiment": "SPR Biacore T100, antibody captured, 25 C", "experimental": "as §1, §2, §3"}, "[4]": {"target": "T4, human HER3 Extracellular Domain (ECD) (human, UniProt P21860 20-643)", "T4 construct": "human recombinant, 68 kDa; 'closed' conformation without ligand; also called Her3 ECD; Her-3 ECD", "experiment": "SPR Biacore T100, antibody captured, 25 C", "experimental": "as §1, §2, §3"}, "[5]": {"target": "T5, HER3 ECD-HRG complex (human, UniProt P21860 20-643)", "T5 construct": "HER3 ECD preincubated with a 3- to 6-fold molar excess of Heregulin ('open' conformation); biotinylated Her3-ECD in the ribosome display; also called HER3-ECD/HRG1β", "experiment": "SPR Biacore T100, antibody captured, 25 C", "experimental": "as §1, §2, §3"}, "[6]": {"target": "T6, human HER2 Extracellular Domain (ECD) (human, UniProt P04626 23-652)", "T6 construct": "human recombinant, 69.6 kDa; also called Her2 ECD; HER2_ECD", "experiment": "SPR Biacore T100, antibody captured, 25 C", "experimental": "as §1, §2, §3"}, "[7]": {"target": "T5, HER3 ECD-HRG complex", "experiment": "SPR Biacore T100; reference: HER3-ECD without Heregulin", "experimental": "as §1"}, "[8]": {"target": "T7, human HER1 (full length, on cells) (human, UniProt P00533 25-1210)", "T7 construct": "HEK293 cells transfected with full length HER1, fixed and embedded (IHC); also called EGFR", "experiment": "IHC (Ventana Benchmark XT) on formalin-fixed, paraffin-embedded HEK293 cells transiently transfected with full length HER1", "experimental": "All selected clones were tested for reactivity and specificity in IHC. […] After an additional fixation in formalin overnight the Agarose blocks were embedded in paraffin. Untransfected HEK293 cells were used as negative controls and treated accordingly to the transfected cells. After paraffin embedding 3 μm thin sections were prepared using a microtome. The sections were mounted on glass microscopy slides and dried for 2 h. All further steps of the immunohistochemical staining procedure were carried out using a Ventana Benchmark XT. The slides were dewaxed and antigen retrieval was performed by applying heat for 1 hour. For antigen retrieval the Ventana buffer CC1 was used. The antibodies were used at a concentration of 1 μg/ml. For the detection of bound antibody the Ventana UltraView detection kit was used."}},
  "note": "“And” between values parts separate entries of the source, which are not always exact repeats. Identical values can stand only once.",
  "data": [
    {"binder": "anti-HER3/HER4 antibody M-05-74 (antibody, V domains shown, murine monoclonal IgG from hybridoma (supernatant or purified), bivalent; also called M-074; M-5-74) VH: QVQLQQSGAELAKPGASVKMSCKTSGYTLTDYWIHWVKQRPGQGLEWIGYINPYTGYTESNQKFKDKATLTADKSSNTAYIQLSSLTSEDSAVYYCARPYYYGDYWGQGTTLTVSS VL: QIVLTQSPAIMSASPGERVTITCSASSSVSYMHWFQQKPGTSPKLLIYSTSNLASGVPARFSGSGSGTSYSLTISRMEAEDAATYYCQQRSSYPFTFGSGTKLEIK", "values": [
      {"measurement": "EC50 (read off the curve)", "setting": "[1]", "result": "~0.3", "unit": "nM"},
      {"measurement": "binding result", "setting": "[2]", "result": "no binding (tested: up to 90 nM)"},
      {"measurement": "BL (Binding Late)", "setting": "[3]", "result": 27, "unit": "RU"},
      {"measurement": "Kd", "setting": "[3]", "result": 150, "unit": "nM"},
      {"measurement": "MR (Molar Ratio)", "setting": "[3]", "result": 0.1},
      {"measurement": "BL (Binding Late)", "setting": "[4]", "result": 70, "unit": "RU"},
      {"measurement": "Kd", "setting": "[4]", "result": "2.2 nM and 2 nM"},
      {"measurement": "MR (Molar Ratio)", "setting": "[4]", "result": 0.2},
      {"measurement": "koff", "setting": "[4]", "result": "2.8e-05", "unit": "s⁻¹"},
      {"measurement": "kon", "setting": "[4]", "result": 13000, "unit": "M⁻¹ s⁻¹"},
      {"measurement": "BL (Binding Late)", "setting": "[5]", "result": 160, "unit": "RU"},
      {"measurement": "Kd", "setting": "[5]", "result": "4.2 nM and 4 nM"},
      {"measurement": "MR (Molar Ratio)", "setting": "[5]", "result": 0.6},
      {"measurement": "koff", "setting": "[5]", "result": 0.00027, "unit": "s⁻¹"},
      {"measurement": "kon", "setting": "[5]", "result": 63000, "unit": "M⁻¹ s⁻¹"},
      {"measurement": "binding result", "setting": "[6]", "result": "no binding (tested: up to 90 nM)"},
      {"measurement": "ratio MR (+Heregulin)/MR (-Heregulin)", "setting": "[7]", "result": 3, "unit": "fold"},
      {"measurement": "ratio ka (Her3-ECD-HRG)/ka (Her3-ECD)", "setting": "[7]", "result": 4.85, "unit": "fold"},
      {"measurement": "binding result", "setting": "[8]", "result": "no binding (tested: 1 µg/ml)"}
    ]}
  ]
}
